From publication PMC10397247

Tests used:
4H775-AA = biological target: T1, 4H775-AA; assay: two-hybrid library CCmax; conditions: mean of both orientations;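 also: natural log of median RNA to DNA barcode read ratio; higher means stronger binding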
T1 chain: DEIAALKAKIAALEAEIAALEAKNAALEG

4H510-AA = biological target: T2, 4H510-AA; assay: two-hybrid library CCmax; conditions: mean of both orientations;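 also: natural log of median RNA to DNA barcode read ratio; higher means stronger binding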
T2 chain: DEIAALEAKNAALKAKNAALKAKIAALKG

4H390-AA = biological target: T3, 4H390-AA; assay: two-hybrid library CCmax; conditions: mean of both orientations;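 also: natural log of median RNA to DNA barcode read ratio; higher means stronger binding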
T3 chain: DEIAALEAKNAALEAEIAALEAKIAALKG

4H2687-AA = biological target: T4, 4H2687-AA; assay: two-hybrid library CCmax; conditions: mean of both orientations;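 also: natural log of median RNA to DNA barcode read ratio; higher means stronger binding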
T4 chain: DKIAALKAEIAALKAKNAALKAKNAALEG

4H3940-AA = biological target: T5, 4H3940-AA; assay: two-hybrid library CCmax; conditions: mean of both orientations;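 also: natural log of median RNA to DNA barcode read ratio; higher means stronger binding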
T5 chain: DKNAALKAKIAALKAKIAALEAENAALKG

4H2512-AA = biological target: T6, 4H2512-AA; assay: two-hybrid library CCmax;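 also: natural log of median RNA to DNA barcode read ratio; higher means stronger binding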
T6 chain: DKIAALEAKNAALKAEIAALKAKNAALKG

4H3409-AA = biological target: T7, 4H3409-AA; assay: two-hybrid library CCmax; conditions: mean of both orientations
T7 chain: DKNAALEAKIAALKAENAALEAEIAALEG

4H278-AA = biological target: T8, 4H278-AA; assay: two-hybrid library CCmax; conditions: mean of both orientations
T8 chain: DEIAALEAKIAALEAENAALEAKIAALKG

4H2758-AA = biological target: T9, 4H2758-AA; assay: two-hybrid library CCmax
T9 chain: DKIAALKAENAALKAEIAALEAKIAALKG

4H2873-AA = biological target: T10, 4H2873-AA; assay: two-hybrid library CCmax; conditions: mean of both orientations
T10 chain: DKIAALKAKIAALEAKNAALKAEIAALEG

4H816-AA = biological target: T11, 4H816-AA; assay: two-hybrid library CCmax; conditions: mean of both orientations
T11 chain: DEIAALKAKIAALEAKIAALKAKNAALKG

4H2646-AA = biological target: T12, 4H2646-AA; assay: two-hybrid library CCmax; conditions: mean of both orientations
T12 chain: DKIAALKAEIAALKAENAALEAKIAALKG

4H2985-AA = biological target: T13, 4H2985-AA; assay: two-hybrid library CCmax; conditions: mean of both orientations
T13 chain: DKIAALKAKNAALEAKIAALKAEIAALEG

4H2705-AA = biological target: T14, 4H2705-AA; assay: two-hybrid library CCmax
T14 chain: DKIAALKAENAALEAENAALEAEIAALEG

4H87-AA = biological target: T15, 4H87-AA; assay: two-hybrid library CCmax; conditions: mean of both orientations
T15 chain: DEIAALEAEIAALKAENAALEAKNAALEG

4H3625-AA = biological target: T16, 4H3625-AA; assay: two-hybrid library CCmax; conditions: mean of both orientations
T16 chain: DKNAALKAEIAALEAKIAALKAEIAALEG

4H3134-AA = biological target: T17, 4H3134-AA; assay: two-hybrid library CCmax; conditions: mean of both orientations
T17 chain: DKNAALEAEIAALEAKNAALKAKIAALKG

P7A-bA = biological target: T18, P7A-bA; assay: two-hybrid library CCNG1
T18 chain: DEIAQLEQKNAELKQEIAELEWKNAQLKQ

P8A-bA = biological target: T19, P8A-bA; assay: two-hybrid library CCNG1
T19 chain: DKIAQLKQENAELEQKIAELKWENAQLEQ

P9A-bA = biological target: T20, P9A-bA; assay: two-hybrid library CCNG1
T20 chain: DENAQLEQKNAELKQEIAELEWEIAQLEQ

P5A-bA = biological target: T21, P5A-bA; assay: two-hybrid library CCNG1
T21 chain: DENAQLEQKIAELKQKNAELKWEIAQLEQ

P6A-bA = biological target: T22, P6A-bA; assay: two-hybrid library CCNG1
T22 chain: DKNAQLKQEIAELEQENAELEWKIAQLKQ

4H796-bN = biological target: T23, 4H796-bN; assay: two-hybrid library CCNG1
T23 chain: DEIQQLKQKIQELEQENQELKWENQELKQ

4H264-bN = biological target: T24, 4H264-bN; assay: two-hybrid library CCNG1
T24 chain: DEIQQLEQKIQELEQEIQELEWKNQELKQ

4H3041-bN = biological target: T25, 4H3041-bN; assay: two-hybrid library CCNG1
T25 chain: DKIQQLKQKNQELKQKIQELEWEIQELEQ

4H3364-bN = biological target: T26, 4H3364-bN; assay: two-hybrid library CCNG1
T26 chain: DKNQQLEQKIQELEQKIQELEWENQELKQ

4H3297-bN = biological target: T27, 4H3297-bN; assay: two-hybrid library CCNG1
T27 chain: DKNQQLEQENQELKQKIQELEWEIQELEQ

4H349-bN = biological target: T28, 4H349-bN; assay: two-hybrid library CCNG1
T28 chain: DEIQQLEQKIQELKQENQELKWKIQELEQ

4H2859-bN = biological target: T29, 4H2859-bN; assay: two-hybrid library CCNG1
T29 chain: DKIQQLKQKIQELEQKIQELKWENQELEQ

4H2931-bN = biological target: T30, 4H2931-bN; assay: two-hybrid library CCNG1
T30 chain: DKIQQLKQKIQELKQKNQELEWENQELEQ

4H730-bN = biological target: T31, 4H730-bN; assay: two-hybrid library CCNG1
T31 chain: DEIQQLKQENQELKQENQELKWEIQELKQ

4H949-bN = biological target: T32, 4H949-bN; assay: two-hybrid library CCNG1
T32 chain: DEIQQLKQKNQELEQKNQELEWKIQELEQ

4H2760-bN = biological target: T33, 4H2760-bN; assay: two-hybrid library CCNG1
T33 chain: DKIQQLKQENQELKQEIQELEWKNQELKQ

4H56-bN = biological target: T34, 4H56-bN; assay: two-hybrid library CCNG1
T34 chain: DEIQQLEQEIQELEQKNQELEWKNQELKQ

4H932-bN = biological target: T35, 4H932-bN; assay: two-hybrid library CCNG1
T35 chain: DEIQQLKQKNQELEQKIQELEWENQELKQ

4H3381-bN = biological target: T36, 4H3381-bN; assay: two-hybrid library CCNG1
T36 chain: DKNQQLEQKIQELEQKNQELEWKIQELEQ

4H346-bN = biological target: T37, 4H346-bN; assay: two-hybrid library CCNG1
T37 chain: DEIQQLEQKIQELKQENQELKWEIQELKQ

4H2585-bN = biological target: T38, 4H2585-bN; assay: two-hybrid library CCNG1
T38 chain: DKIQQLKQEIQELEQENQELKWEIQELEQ

P8mS = biological target: T39, P8mS; assay: two-hybrid library CCNG1
T39 chain: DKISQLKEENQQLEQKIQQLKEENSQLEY

P9mS = biological target: T40, P9mS; assay: two-hybrid library CCNG1
T40 chain: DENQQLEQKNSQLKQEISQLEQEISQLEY

DKIAALEAKNAALKAEIAALKAKNAALKG [4H2512-AA]
interaction score (4H775-AA): -1.11
interaction score (4H510-AA): -1.85
interaction score (4H390-AA): 0.0427
interaction score (4H2687-AA): -1.95
interaction score (4H3940-AA): -1.72
interaction score (4H2512-AA): 0.206
interaction score (4H3409-AA): 1.21
interaction score (4H278-AA): 2.22
interaction score (4H2758-AA): -0.837
interaction score (4H2873-AA): -1.36
interaction score (4H816-AA): -1.79
interaction score (4H2646-AA): -1.05
interaction score (4H2985-AA): 0.303
interaction score (4H2705-AA): -0.766
interaction score (4H87-AA): -0.485
interaction score (4H3625-AA): -1.5
interaction score (4H3134-AA): -0.978

DENAQLEQKIAELKQKNAELKWEIAQLEQ [P5A-bA]
interaction score (P7A-bA): -1.32
interaction score (P8A-bA): 0.0376
interaction score (P9A-bA): -0.7
interaction score (P5A-bA): -1.22
interaction score (P6A-bA): 2.33

DKIQQLKQEIQELEQENQELKWEIQELEQ [4H2585-bN]
interaction score (4H796-bN): -0.881
interaction score (4H264-bN): -0.828
interaction score (4H3041-bN): -0.321
interaction score (4H3364-bN): -0.855
interaction score (4H3297-bN): -0.64
interaction score (4H349-bN): 1.61
interaction score (4H2859-bN): 0.161
interaction score (4H2931-bN): -0.905
interaction score (4H730-bN): -0.949
interaction score (4H949-bN): -0.975
interaction score (4H2760-bN): -1.01
interaction score (4H56-bN): -0.978
interaction score (4H932-bN): -1.52
interaction score (4H3381-bN): -2.06
interaction score (4H346-bN): 2.36
interaction score (4H2585-bN): -0.804

DKISQLKEENQQLEQKIQQLKEENSQLEY [P8mS]
interaction score (P8mS): -1.02
interaction score (P9mS): -0.61
